Measured values published in publication PMC3642092 (FEBS Open Bio, 2012).

Molecular target: F-actin (filamentous rabbit skeletal muscle actin) (rabbit, UniProt P68135 1-377)
Test: co-sedimentation

Kd	Binder
123 ± 14 µM	UTR261^T36C/S242C, oxidised (intra-chain disulphide, locked closed) (domain or fragment, intra-chain disulphide between the engineered cysteines C36 and C242) MAKYGEHEASPDNGQNEFSDIIKSRSDEHNDVQKKCFTKWINARFSKSGKPPINDMFTDLKDGRKLLDLLEGLTGTSLPKERGSTRVHALNNVNRVLQVLHQNNVELVNIGGTDIVDGNHKLTLGLLWSIILHWQVKDVMKDVMSDLQQTNSEKILLSWVRQTTRPYSQVNVLNFTTSWTDGLAFNAVLHRHKPDLFSWDKVVKMSPIERLEHAFSKAQTYLGIEKLLDPEDVAVQLPDKKCIIMYLTSLFEVLPQQVTID
74.8 ± 19 µM	UTR261^T36C/S242C, reduced (domain or fragment) MAKYGEHEASPDNGQNEFSDIIKSRSDEHNDVQKKCFTKWINARFSKSGKPPINDMFTDLKDGRKLLDLLEGLTGTSLPKERGSTRVHALNNVNRVLQVLHQNNVELVNIGGTDIVDGNHKLTLGLLWSIILHWQVKDVMKDVMSDLQQTNSEKILLSWVRQTTRPYSQVNVLNFTTSWTDGLAFNAVLHRHKPDLFSWDKVVKMSPIERLEHAFSKAQTYLGIEKLLDPEDVAVQLPDKKCIIMYLTSLFEVLPQQVTID
